Square brackets hold non-standard residues; d marks the D form. Peptide text beside a SMILES is read from it. * marks the point of attachment. X3 = O=C(CCCCCNCc1nc2c(sc3cc(Br)cnc32)c(=O)[nH]1)*
Assays:
Test in all cases: Kinase profiling (radiometric filter-binding)
Format in all cases: biochemical
PAK2 = PAK2 (Homo sapiens, UniProt Q13177); conditions: PAK2, 1 µM inhibitor; read-out: Residual activity, %
Procedure, shortened: (§1)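 A 1 µM final dose of each inhibitor was profiled on human protein kinases; ATP was kept at or beneath the KM of every enzyme, and radiometric filter binding measured turnover, expressed as % of the inhibitor-free reaction.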

DYRK3 = molecular target: T1, DYRK3 (Homo sapiens, UniProt O43781); conditions: DYRK3, 1 µM inhibitor; read-out: Residual activity, %
T1 sequence (O43781 1-588): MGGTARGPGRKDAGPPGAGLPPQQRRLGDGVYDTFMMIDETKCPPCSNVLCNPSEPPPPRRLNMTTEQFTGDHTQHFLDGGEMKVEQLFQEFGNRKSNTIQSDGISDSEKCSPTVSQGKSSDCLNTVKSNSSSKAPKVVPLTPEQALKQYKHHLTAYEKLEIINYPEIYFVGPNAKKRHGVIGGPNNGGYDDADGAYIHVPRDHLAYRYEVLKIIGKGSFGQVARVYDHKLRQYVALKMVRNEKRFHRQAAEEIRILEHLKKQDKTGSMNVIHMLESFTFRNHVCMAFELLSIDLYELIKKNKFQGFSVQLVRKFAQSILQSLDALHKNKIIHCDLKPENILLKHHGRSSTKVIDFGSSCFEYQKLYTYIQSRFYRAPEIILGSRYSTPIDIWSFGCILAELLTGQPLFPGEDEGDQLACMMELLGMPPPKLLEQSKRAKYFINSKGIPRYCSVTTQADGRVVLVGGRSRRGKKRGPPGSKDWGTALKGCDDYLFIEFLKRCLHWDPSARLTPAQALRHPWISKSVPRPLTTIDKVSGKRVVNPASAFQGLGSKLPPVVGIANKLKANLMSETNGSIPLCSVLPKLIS
Procedure, shortened: as §1

TrkA = TrkA (Homo sapiens, UniProt P04629); conditions: 1 µM inhibitor, read-out: Residual activity, %
TrkA, sequence (P04629 33-796): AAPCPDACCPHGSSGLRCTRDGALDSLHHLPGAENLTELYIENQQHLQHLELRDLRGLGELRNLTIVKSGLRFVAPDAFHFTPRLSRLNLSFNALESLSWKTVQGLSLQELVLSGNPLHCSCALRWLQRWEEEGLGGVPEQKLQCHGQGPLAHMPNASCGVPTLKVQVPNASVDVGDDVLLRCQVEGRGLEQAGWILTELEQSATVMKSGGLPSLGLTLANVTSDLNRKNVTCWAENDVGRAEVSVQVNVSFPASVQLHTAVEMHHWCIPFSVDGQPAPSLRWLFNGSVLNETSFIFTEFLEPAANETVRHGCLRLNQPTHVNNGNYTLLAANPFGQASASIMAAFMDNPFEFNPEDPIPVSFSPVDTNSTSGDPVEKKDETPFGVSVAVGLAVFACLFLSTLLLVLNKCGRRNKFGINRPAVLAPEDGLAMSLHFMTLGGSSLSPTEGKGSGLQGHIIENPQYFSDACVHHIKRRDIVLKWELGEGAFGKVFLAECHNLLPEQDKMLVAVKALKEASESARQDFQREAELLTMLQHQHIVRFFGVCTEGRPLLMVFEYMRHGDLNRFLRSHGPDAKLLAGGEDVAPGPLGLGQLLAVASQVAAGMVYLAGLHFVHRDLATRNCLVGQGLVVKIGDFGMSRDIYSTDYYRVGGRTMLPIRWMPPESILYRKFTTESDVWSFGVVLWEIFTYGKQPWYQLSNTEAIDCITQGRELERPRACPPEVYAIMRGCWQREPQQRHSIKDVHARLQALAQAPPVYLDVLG
Procedure, shortened: as §1

PIM3 = PIM3 (Homo sapiens, UniProt Q86V86); conditions: PIM3, 1 µM inhibitor; read-out: Residual activity, %
Procedure, shortened: as §1

STK33 = STK33 (Homo sapiens, UniProt Q9BYT3); conditions: STK33, 1 µM inhibitor; read-out: Residual activity, %
STK33, sequence (Q9BYT3 whole entry): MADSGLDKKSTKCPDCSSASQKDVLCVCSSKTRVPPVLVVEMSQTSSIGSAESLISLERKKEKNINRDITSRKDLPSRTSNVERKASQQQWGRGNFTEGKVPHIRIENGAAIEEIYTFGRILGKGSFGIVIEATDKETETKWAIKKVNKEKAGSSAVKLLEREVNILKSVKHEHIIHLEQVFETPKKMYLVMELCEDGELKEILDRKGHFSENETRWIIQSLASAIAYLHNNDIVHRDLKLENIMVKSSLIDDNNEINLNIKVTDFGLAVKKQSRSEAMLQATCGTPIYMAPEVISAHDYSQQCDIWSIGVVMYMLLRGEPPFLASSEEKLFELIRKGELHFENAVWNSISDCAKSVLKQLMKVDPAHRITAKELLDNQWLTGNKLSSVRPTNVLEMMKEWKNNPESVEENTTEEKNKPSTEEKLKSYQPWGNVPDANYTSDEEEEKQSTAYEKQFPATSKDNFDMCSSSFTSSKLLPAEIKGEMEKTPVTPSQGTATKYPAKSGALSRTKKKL
Procedure, shortened: as §1

MNK2 = MNK2 (Homo sapiens, UniProt Q9HBH9); conditions: MNK2, 1 µM inhibitor; read-out: Residual activity, %
MNK2, sequence (Q9HBH9 whole entry): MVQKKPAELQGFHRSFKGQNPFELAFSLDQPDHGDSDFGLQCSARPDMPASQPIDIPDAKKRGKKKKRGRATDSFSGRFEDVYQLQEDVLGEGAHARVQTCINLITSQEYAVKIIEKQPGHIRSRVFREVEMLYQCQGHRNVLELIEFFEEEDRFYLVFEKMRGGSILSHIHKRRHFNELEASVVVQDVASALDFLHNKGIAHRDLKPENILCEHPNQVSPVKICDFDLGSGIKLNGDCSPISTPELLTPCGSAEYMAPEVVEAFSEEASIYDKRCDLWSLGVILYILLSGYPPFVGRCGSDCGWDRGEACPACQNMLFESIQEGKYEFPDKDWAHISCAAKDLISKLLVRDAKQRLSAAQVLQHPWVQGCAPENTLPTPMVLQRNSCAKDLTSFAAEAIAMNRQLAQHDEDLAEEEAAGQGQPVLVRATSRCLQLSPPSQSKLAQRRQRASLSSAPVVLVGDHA
Procedure, shortened: as §1

BRSK1 = molecular target: T2, BRSK1 (Homo sapiens, UniProt Q8TDC3); conditions: BRSK1, 1 µM inhibitor; read-out: Residual activity, %
T2 sequence (Q8TDC3 1-778): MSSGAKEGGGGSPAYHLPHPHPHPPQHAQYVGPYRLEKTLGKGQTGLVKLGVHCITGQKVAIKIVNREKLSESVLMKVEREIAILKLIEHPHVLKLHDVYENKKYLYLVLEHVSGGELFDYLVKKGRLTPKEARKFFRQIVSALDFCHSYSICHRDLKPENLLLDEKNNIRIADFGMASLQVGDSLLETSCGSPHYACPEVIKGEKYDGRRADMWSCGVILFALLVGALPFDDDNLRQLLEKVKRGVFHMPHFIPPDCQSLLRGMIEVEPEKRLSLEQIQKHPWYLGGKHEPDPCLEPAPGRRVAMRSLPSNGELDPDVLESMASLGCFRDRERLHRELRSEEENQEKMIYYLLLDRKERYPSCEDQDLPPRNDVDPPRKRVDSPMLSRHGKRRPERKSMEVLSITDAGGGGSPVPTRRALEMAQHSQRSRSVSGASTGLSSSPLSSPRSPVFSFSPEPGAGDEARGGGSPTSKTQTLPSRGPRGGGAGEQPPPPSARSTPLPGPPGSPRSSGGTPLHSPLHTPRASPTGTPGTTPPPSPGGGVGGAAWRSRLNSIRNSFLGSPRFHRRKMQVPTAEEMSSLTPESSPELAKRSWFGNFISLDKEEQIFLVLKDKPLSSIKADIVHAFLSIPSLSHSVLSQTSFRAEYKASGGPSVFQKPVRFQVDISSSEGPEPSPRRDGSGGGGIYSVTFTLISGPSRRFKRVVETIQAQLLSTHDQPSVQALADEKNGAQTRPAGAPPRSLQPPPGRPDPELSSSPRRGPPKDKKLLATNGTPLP
Procedure, shortened: as §1

MAPKAP-K3 = MAPKAP-K3 (Homo sapiens, UniProt Q16644); conditions: MAPKAP-K3, 1 µM inhibitor; read-out: Residual activity, %
MAPKAP-K3, sequence (Q16644 whole entry): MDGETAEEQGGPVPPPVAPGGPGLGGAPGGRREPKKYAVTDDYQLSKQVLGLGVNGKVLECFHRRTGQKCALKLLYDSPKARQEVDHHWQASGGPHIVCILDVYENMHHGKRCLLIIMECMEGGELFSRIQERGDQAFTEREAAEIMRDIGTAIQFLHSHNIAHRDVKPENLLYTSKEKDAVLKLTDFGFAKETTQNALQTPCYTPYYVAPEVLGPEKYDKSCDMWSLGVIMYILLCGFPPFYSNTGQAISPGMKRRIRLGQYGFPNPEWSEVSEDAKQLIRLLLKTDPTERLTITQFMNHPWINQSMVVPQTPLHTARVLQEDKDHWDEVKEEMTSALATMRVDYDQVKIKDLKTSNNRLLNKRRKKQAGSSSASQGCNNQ
Procedure, shortened: as §1

MARK4 = molecular target: T3, MARK4 (Homo sapiens, UniProt Q96L34); conditions: MARK4, 1 µM inhibitor; read-out: Residual activity, %
T3 sequence (Q96L34 1-752): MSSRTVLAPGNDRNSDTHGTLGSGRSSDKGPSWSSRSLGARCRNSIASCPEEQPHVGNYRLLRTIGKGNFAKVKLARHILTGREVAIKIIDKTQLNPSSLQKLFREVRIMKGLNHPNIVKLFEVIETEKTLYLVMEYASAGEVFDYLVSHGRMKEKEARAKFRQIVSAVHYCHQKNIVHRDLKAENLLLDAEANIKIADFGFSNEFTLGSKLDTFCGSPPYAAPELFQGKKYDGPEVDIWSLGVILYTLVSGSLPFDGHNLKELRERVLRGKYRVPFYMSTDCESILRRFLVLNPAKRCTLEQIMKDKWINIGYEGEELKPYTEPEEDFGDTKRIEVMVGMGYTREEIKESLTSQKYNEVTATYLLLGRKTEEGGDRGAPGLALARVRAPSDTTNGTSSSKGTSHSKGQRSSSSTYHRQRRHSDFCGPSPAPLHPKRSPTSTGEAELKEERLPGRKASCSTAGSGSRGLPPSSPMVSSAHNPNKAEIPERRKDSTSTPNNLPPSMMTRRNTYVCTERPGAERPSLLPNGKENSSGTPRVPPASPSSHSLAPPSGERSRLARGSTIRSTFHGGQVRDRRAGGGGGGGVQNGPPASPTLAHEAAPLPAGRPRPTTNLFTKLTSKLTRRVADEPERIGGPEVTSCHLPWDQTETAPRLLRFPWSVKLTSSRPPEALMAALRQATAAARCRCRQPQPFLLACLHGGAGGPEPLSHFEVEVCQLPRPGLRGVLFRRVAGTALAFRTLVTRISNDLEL
Procedure, shortened: as §1

PAK2, sequence (Q13177 whole entry): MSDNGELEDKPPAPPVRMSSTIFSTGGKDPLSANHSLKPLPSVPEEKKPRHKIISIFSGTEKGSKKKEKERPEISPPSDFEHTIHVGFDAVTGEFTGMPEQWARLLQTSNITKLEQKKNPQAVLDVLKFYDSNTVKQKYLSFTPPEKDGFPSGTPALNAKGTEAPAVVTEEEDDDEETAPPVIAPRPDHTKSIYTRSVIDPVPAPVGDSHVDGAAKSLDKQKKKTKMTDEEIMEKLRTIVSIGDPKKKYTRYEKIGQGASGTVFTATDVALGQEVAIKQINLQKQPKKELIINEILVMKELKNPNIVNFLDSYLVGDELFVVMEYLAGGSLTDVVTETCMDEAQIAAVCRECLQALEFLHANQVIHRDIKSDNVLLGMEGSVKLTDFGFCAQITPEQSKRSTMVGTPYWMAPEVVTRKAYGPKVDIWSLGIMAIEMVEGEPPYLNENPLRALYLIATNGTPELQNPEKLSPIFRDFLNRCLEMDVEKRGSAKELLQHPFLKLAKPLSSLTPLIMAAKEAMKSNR

Row | SMILES | remaining activity at 1 µM (PAK2) [%] | remaining activity at 1 µM (DYRK3) [%] | remaining activity at 1 µM (TrkA) [%] | remaining activity at 1 µM (PIM3) [%] | remaining activity at 1 µM (STK33) [%] | remaining activity at 1 µM (MNK2) [%] | remaining activity at 1 µM (BRSK1) [%] | remaining activity at 1 µM (MAPKAP-K3) [%] | remaining activity at 1 µM (MARK4) [%]
1 | N=C(N)NCCC[C@@H](NC(=O)CCCCCNC(=O)Cn1cnc2c(I)c(I)c(I)c(I)c21)C(=O)N[C@H](CCCNC(=N)N)C(=O)N[C@H](CCCNC(=N)N)C(=O)N[C@H](CCCNC(=N)N)C(=O)N[C@H](CCCNC(=N)N)C(=O)N[C@H](CCCNC(=N)N)C(=O)N[C@H](CCCCN)C(N)=O [ARC-3125, TIBI-CH2-C(=O)-Ahx-(D-Arg)6-D-Lys-NH2] | 29 ± 4 | 22 ± 2 | 97 ± 7 | 7 ± 1 | 84 ± 20 | 19 ± 4 | 84 ± 2 | 48 ± 1 | 92 ± 3
2 | N=C(N)NCCC[C@@H](NC(=O)CCCCCNCc1nc2c(sc3cc(Br)cnc32)c(=O)[nH]1)C(=O)N[C@H](CCCNC(=N)N)C(=O)N[C@H](CCCNC(=N)N)C(=O)N[C@H](CCCNC(=N)N)C(=O)N[C@H](CCCNC(=N)N)C(=O)N[C@H](CCCNC(=N)N)C(=O)N[C@H](CCCCN)C(N)=O [ARC-3126, BPTP-Ahx-(D-Arg)6-D-Lys-NH2] (X3-[dR][dR][dR][dR][dR][dR][dK]-NH2) | 72 ± 5 | 82 ± 1 | 112 ± 21 | 13 | 107 ± 6 | 84 ± 17 | 50 ± 10 | 43 ± 7 | 119 ± 7
3 | N=C(N)NCCC[C@@H](NC(=O)CNC(=O)[C@@H](CCCNC(=N)N)NC(=O)[C@@H](CCCNC(=N)N)NC(=O)CCCCCCCNCc1nc2c(sc3cc(Br)cnc32)c(=O)[nH]1)C(=O)N[C@H](CCCCN)C(N)=O [Compound 1, BPTP-Aoc-(D-Arg)2-Gly-D-Arg-D-Lys-NH2] | 99 ± 9 | 43 ± 6 | 106 ± 17 | 17 | 110 ± 2 | 80 ± 3 | 107 ± 5 | 111 ± 6 | 124 ± 14
4 | N=C(N)NCCC[C@@H](NC(=O)CNC(=O)[C@@H](CCCNC(=N)N)NC(=O)[C@@H](CCCNC(=N)N)NC(=O)CCCCCCCNCc1nc2c(sc3ccc(Br)cc32)c(=O)[nH]1)C(=O)N[C@H](CCCCN)C(N)=O [Compound 2, BBTP-Aoc-(D-Arg)2-Gly-D-Arg-D-Lys-NH2] | 100 ± 10 | 34 ± 2 | 128 ± 13 | 4 ± 1 | 106 ± 3 | 47 ± 2 | 101 | 110 ± 11 | 128 ± 3
5 | N=C(N)NCCC[C@@H](NC(=O)CNC(=O)[C@@H](CCCNC(=N)N)NC(=O)[C@@H](CCCNC(=N)N)NC(=O)Cn1cc(CNCc2nc3c(sc4ccc(Br)cc43)c(=O)[nH]2)nn1)C(=O)N[C@H](CCCCN)C(N)=O [Compound 3, BBTP-Amt-(D-Arg)2-Gly-D-Arg-D-Lys-NH2] | 91 ± 4 | 55 ± 4 | 95 ± 2 | 6 | 91 | 96 ± 10 | 90 ± 11 | 85 ± 5 | 90 ± 12

From paper PMC8307404, “Crystal Structure-Guided Design of Bisubstrate Inhibitors and Photoluminescent Probes for Protein Kinases of the PIM Family” (Molecules, 2021)
